Assay results as given in article PMC8834437, “Physical Interaction between Embryonic Stem Cell-Expressed Ras (ERas) and Arginase-1 in Quiescent Hepatic Stellate Cells” (Cells, 2022).

T1: purified arginase 1 (ARG1; aa 1-322) (UniProt P05089 1-322)
T1 construct: Arginase 1 (ARG1), P05089, aa 1-322; Named MBP-ARG1 only for the SPR; also called MBP-ARG1; purified ARG1
T1 sequence (looked up): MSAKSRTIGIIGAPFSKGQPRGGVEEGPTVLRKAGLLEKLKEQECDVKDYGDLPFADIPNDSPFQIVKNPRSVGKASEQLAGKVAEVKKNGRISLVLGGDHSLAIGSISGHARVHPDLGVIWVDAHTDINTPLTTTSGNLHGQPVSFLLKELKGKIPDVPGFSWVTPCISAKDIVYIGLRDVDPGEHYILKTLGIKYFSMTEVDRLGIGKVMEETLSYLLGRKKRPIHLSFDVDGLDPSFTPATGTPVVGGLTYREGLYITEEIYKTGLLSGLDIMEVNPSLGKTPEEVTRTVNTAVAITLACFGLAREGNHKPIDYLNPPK


Experiments:
[1] = molecular target: T1, purified arginase 1 (ARG1; aa 1-322); experiment: SPR; Biacore X100, CM5 chip, GST-hsNex (10 µM) captured by immobilized anti-GST antibody, MBP-ARG1 0.5-20 µM injected, 25 °C, 10 mM HEPES pH 7.4, 150 mM NaCl, 0.05% P20, Langmuir 1:1 model; conditions: both partners purified
[2] = molecular target: T1, purified arginase 1 (ARG1; aa 1-322); experiment: pull-down; GST-fusion proteins immobilized on GSH agarose beads, mixed with purified ARG1, 1 h at 4 °C; conditions: both partners purified

Kd [1] [nM] | binding result [2] | Binder
2100 | – | MELPTKPGTFDLGLATWSPSFQGETHRAQARRRDVGRQ (domain or fragment, UniProt Q7Z444 1-38, looked up, Embryonic stem cell-expressed Ras (ERas), human, Q7Z444, N-terminal extension (Nex) aa 1-38; Cloned into pMal-c5X-His or pGEX-4T1-N-TEV; used as GST fusion; also called ERas hsNex; GST-Nex of human ERas) [GST-hsNex (human ERas N-terminal extension, aa 1-38)]
– | binds | GST-hsFL (human ERas full length, aa 1-233) (natural protein, UniProt Q7Z444 1-233, looked up, Embryonic stem cell-expressed Ras (ERas), human, Q7Z444, FL aa 1-233; also called ERas hsFL; GST-FL of human ERas) MELPTKPGTFDLGLATWSPSFQGETHRAQARRRDVGRQLPEYKAVVVGASGVGKSALTIQLNHQCFVEDHDPTIQDSYWKELTLDSGDCILNVLDTAGQAIHRALRDQCLAVCDGVLGVFALDDPSSLIQLQQIWATWGPHPAQPLVLVGNKCDLVTTAGDAHAAAAALAHSWGAHFVETSAKTRQGVEEAFSLLVHEIQRVQEAMAKEPMARSCREKTRHQKATCHCGCSVA
– | binds | GST-rnFL (rat ERas full length, aa 1-227) (natural protein, UniProt D3ZTE4 1-227, looked up, Embryonic stem cell-expressed Ras (ERas), rat, D3ZTE4, FL aa 1-227; also called GST-FL of rat ERas) MALPTKSSILDLSPGTQCSRSPEESHEAWAQCKDAGRQLPEYKAVVVGASGVGKSALTIQMTHHCFVKDHDPTIQDSYWKEVALDNGGYILNVLDTAGQDSHRALRDQCLAAGDGVLGVFALDDPSSLDQLQQICSTWNPHHKQPLVLVGNKSDLVSSAGDAHTAAAVLAHKLGAPLVKTSAKTRQGVEEAFALLVHEIQRAQEAVAESSKKTRHHKAVCSCGCSVA
– | binds | MALPTKSSILDLSPGTQCSRSPEESHEAWAQCKDAGRQ (domain or fragment, UniProt D3ZTE4 1-38, looked up, Embryonic stem cell-expressed Ras (ERas), rat, D3ZTE4, N-terminal extension (Nex) aa 1-38; also called ERas rnNex; GST-Nex of rat ERas) [GST-rnNex (rat ERas N-terminal extension, aa 1-38)]
